This data set in a line: melting temperature; melt of duplexes. The following applies: sodium 0.0675 M; strand 1 µM.
“CGACGTGCCCTATGTGCTG+CAGCACATTCAGCACGTCG ((((((((...((((((((+))))))))...))))))))”: the Tm – broadly, the temperature at the midpoint of the melting transition – turned out to be 48.8 °C.

In the case of “CGACGTGCTACATGTGCTG+CAGCACATTGAGCACGTCG (((((((((..((((((((+))))))))..)))))))))”, the Tm amounted to 52.8 °C. As to “CGACGTGCTTCATGTGCTG+CAGCACATGTCGCACGTCG ((((((((..(((((((((+)))))))))..))))))))”, the Tm turned out to be 52.2 °C. Consider “CGACGTGCGCGATGTGCTG+CAGCACATGCCGCACGTCG (((((((((..((((((((+))))))))..)))))))))”, for which the melting temperature (Tm) stood at 55.9 °C.

For “CGACGTGCAATATGTGCTG+CAGCACATCATGCACGTCG (((((((((..((((((((+))))))))..)))))))))”, the Tm came to 50.3 °C. The result for “CGACGTGCGAGATGTGCTG+CAGCACATACAGCACGTCG ((((((((...((((((((+))))))))...))))))))” reads 52.6 °C; that for “CGACGTGCCATATGTGCTG+CAGCACATTTAGCACGTCG ((((((((.(.((((((((+)))))))).).))))))))”, 49.7 °C; that for “CGACGTGCAGGATGTGCTG+CAGCACATCTGGCACGTCG ((((((((..(((((((((+)))))))))..))))))))”, 57.1 °C.

On to “CGACGTGCCCCATGTGCTG+CAGCACATTACGCACGTCG ((((((((...((((((((+))))))))...))))))))”, for which the Tm was found to be 54.6 °C. The result for “CGACGTGCTACATGTGCTG+CAGCACATCGTGCACGTCG ((((((((...((((((((+))))))))...))))))))” reads 46.6 °C. With “CGACGTGCGACATGTGCTG+CAGCACATGGTGCACGTCG ((((((((..(((((((((+)))))))))..))))))))”, the Tm turned out to be 57.3 °C.

On to “CGACGTGCGAGATGTGCTG+CAGCACATTATGCACGTCG ((((((((...((((((((+))))))))...))))))))”, for which the Tm turned out to be 51.6 °C. Turning to “CGACGTGCCAGATGTGCTG+CAGCACATAATGCACGTCG ((((((((...((((((((+))))))))...))))))))”, the melting temperature (Tm) came out at 48.5 °C. On to “CGACGTGCCATATGTGCTG+CAGCACATGTAGCACGTCG ((((((((.(.((((((((+)))))))).).))))))))”, for which the Tm came out at 51.3 °C. “CGACGTGCTTTATGTGCTG+CAGCACATTGCGCACGTCG ((((((((...((((((((+))))))))...))))))))”: the Tm worked out at 46.4 °C. Regarding “CGACGTGCGGTATGTGCTG+CAGCACATGACGCACGTCG (((((((((..((((((((+))))))))..)))))))))”, the Tm turned out to be 56.6 °C. Turning to “CGACGTGCCGTATGTGCTG+CAGCACATAATGCACGTCG ((((((((..(((((((((+)))))))))..))))))))”, the Tm was 50.3 °C. In the case of “CGACGTGCGGAATGTGCTG+CAGCACATACCGCACGTCG ((((((((((.((((((((+)))))))).))))))))))”, the Tm was determined as 60.2 °C. As to “CGACGTGCATTATGTGCTG+CAGCACATTAGGCACGTCG ((((((((.(.((((((((+)))))))).).))))))))”, the Tm stood at 51.9 °C. Turning to “CGACGTGCCGGATGTGCTG+CAGCACATTTAGCACGTCG ((((((((...((((((((+))))))))...))))))))”, the Tm came out at 49.4 °C.

Take “CGACGTGCGAAATGTGCTG+CAGCACATAGTGCACGTCG ((((((((...((((((((+))))))))...))))))))”: the Tm is 46 °C. As for “CGACGTGCGCGATGTGCTG+CAGCACATGTTGCACGTCG ((((((((...((((((((+))))))))...))))))))”, the Tm was found to be 50.5 °C. Next, “CGACGTGCCCAATGTGCTG+CAGCACATTGTGCACGTCG ((((((((.((((((((((+)))))))))).))))))))”: 54.7 °C. In the case of “CGACGTGCGGCATGTGCTG+CAGCACATGCCGCACGTCG (((((((((((((((((((+)))))))))))))))))))”, the Tm is 68.9 °C.

For the substance “CGACGTGCGGTATGTGCTG+CAGCACATGGGGCACGTCG ((((((((...((((((((+))))))))...))))))))”, the Tm turned out to be 51.7 °C.

As for “CGACGTGCCTGATGTGCTG+CAGCACATAGTGCACGTCG ((((((((...((((((((+))))))))...))))))))”, the Tm is 46.5 °C. Take “CGACGTGCCGTATGTGCTG+CAGCACATCCAGCACGTCG ((((((((.(.((((((((+)))))))).).))))))))”: the Tm worked out at 49.8 °C. With “CGACGTGCTCTATGTGCTG+CAGCACATCATGCACGTCG ((((((((...((((((((+))))))))...))))))))”, the Tm is 48.5 °C.

For the substance “CGACGTGCGATATGTGCTG+CAGCACATGCGGCACGTCG ((((((((...((((((((+))))))))...))))))))”, the Tm is 50 °C. Next, “CGACGTGCCGCATGTGCTG+CAGCACATCCCGCACGTCG ((((((((.(.((((((((+)))))))).).))))))))”: 48.8 °C; “CGACGTGCGTTATGTGCTG+CAGCACATTTCGCACGTCG (((((((((..((((((((+))))))))..)))))))))”: 54.4 °C; “CGACGTGCGTCATGTGCTG+CAGCACATTGGGCACGTCG ((((((((...((((((((+))))))))...))))))))”: 49.9 °C.

“CGACGTGCGAAATGTGCTG+CAGCACATCAAGCACGTCG ((((((((...((((((((+))))))))...))))))))”: the melting temperature (Tm) amounted to 52.3 °C. In the case of “CGACGTGCGTTATGTGCTG+CAGCACATTTTGCACGTCG ((((((((...((((((((+))))))))...))))))))”, the Tm is 49.7 °C. With “CGACGTGCGCCATGTGCTG+CAGCACATAGCGCACGTCG ((((((((((.((((((((+)))))))).))))))))))”, the melting temperature (Tm) stood at 58.9 °C. As for “CGACGTGCAATATGTGCTG+CAGCACATCGAGCACGTCG ((((((((...((((((((+))))))))...))))))))”, the Tm came out at 48.2 °C. Next, “CGACGTGCGGTATGTGCTG+CAGCACATAATGCACGTCG ((((((((..(((((((((+)))))))))..))))))))”: 54.6 °C.

Regarding “CGACGTGCTCTATGTGCTG+CAGCACATAATGCACGTCG ((((((((..(((((((((+)))))))))..))))))))”, the Tm worked out at 50.4 °C. With “CGACGTGCCCAATGTGCTG+CAGCACATTCTGCACGTCG ((((((((..(((((((((+)))))))))..))))))))”, the Tm came to 49.9 °C. Next, “CGACGTGCGCAATGTGCTG+CAGCACATGGTGCACGTCG ((((((((.(.((((((((+)))))))).).))))))))”: 54.3 °C. Take “CGACGTGCCATATGTGCTG+CAGCACATACCGCACGTCG ((((((((..(((((((((+)))))))))..))))))))”: the Tm is 48.3 °C. Next, “CGACGTGCCGCATGTGCTG+CAGCACATCGTGCACGTCG ((((((((...((((((((+))))))))...))))))))”: 50.5 °C; “CGACGTGCTGTATGTGCTG+CAGCACATATGGCACGTCG ((((((((..(((((((((+)))))))))..))))))))”: 54.4 °C; “CGACGTGCCCAATGTGCTG+CAGCACATAACGCACGTCG ((((((((...((((((((+))))))))...))))))))”: 47.3 °C. “CGACGTGCCTCATGTGCTG+CAGCACATGGGGCACGTCG (((((((((.(((((((((+))))))))).)))))))))”: the Tm was found to be 61.2 °C. As for “CGACGTGCCGAATGTGCTG+CAGCACATGCCGCACGTCG ((((((((.(.((((((((+)))))))).).))))))))”, the Tm was 51.5 °C. Next, “CGACGTGCAACATGTGCTG+CAGCACATACTGCACGTCG (((((((((..((((((((+))))))))..)))))))))”: 49.8 °C.

“CGACGTGCGGGATGTGCTG+CAGCACATAAAGCACGTCG ((((((((...((((((((+))))))))...))))))))”: the Tm came out at 53.6 °C. Next, “CGACGTGCCCAATGTGCTG+CAGCACATCAGGCACGTCG (((((((((..((((((((+))))))))..)))))))))”: 53.9 °C.

Take “CGACGTGCATTATGTGCTG+CAGCACATTAAGCACGTCG ((((((((.(.((((((((+)))))))).).))))))))”: the Tm came to 50.3 °C. Next, “CGACGTGCACAATGTGCTG+CAGCACATCAAGCACGTCG ((((((((...((((((((+))))))))...))))))))”: 46.2 °C; “CGACGTGCACCATGTGCTG+CAGCACATGCTGCACGTCG (((((((((.(((((((((+))))))))).)))))))))”: 51.6 °C; “CGACGTGCAGTATGTGCTG+CAGCACATCTCGCACGTCG ((((((((...((((((((+))))))))...))))))))”: 50.1 °C. As for “CGACGTGCTAAATGTGCTG+CAGCACATTATGCACGTCG ((((((((..(((((((((+)))))))))..))))))))”, the Tm is 53.1 °C. In the case of “CGACGTGCCGAATGTGCTG+CAGCACATCTAGCACGTCG ((((((((...((((((((+))))))))...))))))))”, the Tm was 50.1 °C. Next, “CGACGTGCCGCATGTGCTG+CAGCACATTCGGCACGTCG ((((((((((.((((((((+)))))))).))))))))))”: 59.1 °C; “CGACGTGCAGTATGTGCTG+CAGCACATGCAGCACGTCG ((((((((.(.((((((((+)))))))).).))))))))”: 54.7 °C; “CGACGTGCAGGATGTGCTG+CAGCACATGACGCACGTCG ((((((((...((((((((+))))))))...))))))))”: 47.3 °C.

With “CGACGTGCATGATGTGCTG+CAGCACATGAGGCACGTCG ((((((((.(.((((((((+)))))))).).))))))))”, the Tm came out at 52.6 °C. In the case of “CGACGTGCATAATGTGCTG+CAGCACATCGCGCACGTCG ((((((((...((((((((+))))))))...))))))))”, the Tm was determined as 46.9 °C. The result for “CGACGTGCGATATGTGCTG+CAGCACATGGGGCACGTCG ((((((((...((((((((+))))))))...))))))))” reads 51.3 °C; that for “CGACGTGCATTATGTGCTG+CAGCACATAGGGCACGTCG ((((((((..(((((((((+)))))))))..))))))))”, 52 °C; that for “CGACGTGCGCCATGTGCTG+CAGCACATCGTGCACGTCG ((((((((.(.((((((((+)))))))).).))))))))”, 47.7 °C.

As for “CGACGTGCCCCATGTGCTG+CAGCACATCTTGCACGTCG ((((((((...((((((((+))))))))...))))))))”, the Tm came out at 46.7 °C. As to “CGACGTGCCCGATGTGCTG+CAGCACATATGGCACGTCG (((((((((..((((((((+))))))))..)))))))))”, the Tm came out at 54 °C. “CGACGTGCGATATGTGCTG+CAGCACATCATGCACGTCG ((((((((...((((((((+))))))))...))))))))”: the midpoint of thermal melting (Tm) turned out to be 50.1 °C.

For the origin of these results see the array DNA melting data of Ke et al..
